Measured values from patent WO2010029497A1 (dated 2010).
Where a chain is given by its changes, count along the chain named. In names and notes the source's numbering stands.

Tests used:
[1] = target: T1, human NGF (human, UniProt P01138 122-241); assay: cell-based or functional assay
[2] = target: T1, human NGF; assay: SPR (BIAcore 3000), human NGF immobilised on CM5 chip, Fab injected
[3] = target: T1, human NGF; assay: SPR (BIAcore), 100 RU human NGF on CM5 chip, Fab injected 2 min, 1800 s dissociation
[4] = target: NT3; assay: cell-based or functional assay
Chain of NT3 (P20783 139-257): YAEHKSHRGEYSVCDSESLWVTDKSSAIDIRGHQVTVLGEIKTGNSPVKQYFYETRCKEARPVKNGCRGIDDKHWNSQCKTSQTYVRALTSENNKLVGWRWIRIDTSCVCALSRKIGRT

[5] = target: T1, human NGF; assay: SPR (BIAcore 3000), human NGF immobilised on CM5 chip
[6] = target: T1, human NGF; assay: SPR (BIAcore) screening assay, human NGF on chip, Fab from small culture lysates
[7] = target: rat NGF (rat, UniProt P25427 122-241); assay: cell-based or functional assay
Chain of rat NGF (P25427 122-241 limits assumed): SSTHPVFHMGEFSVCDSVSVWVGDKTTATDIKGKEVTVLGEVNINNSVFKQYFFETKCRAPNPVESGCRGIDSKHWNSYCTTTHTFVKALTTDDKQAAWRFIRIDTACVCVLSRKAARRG

[8] = target: T1, human NGF; assay: summary sentence of the binding properties (BIAcore); its table is not reproduced in this copy
[9] = target: T1, human NGF; assay: SPR (BIAcore), human NGF immobilised on CM5 chip

T1 sequence (P01138 122-241 limits assumed): as the sequence (P25427 122-241 limits assumed) above, with T3S, V6I, M9R, T37M, A60D, E65D, T92M, D94G, A117V, G120A counted along it

Fab fragment of mouse anti-NGF monoclonal antibody 911
concentration that totally blocked NGF-elicited survival of trigeminal neurons [1]: 20 nM
Kd [2]: 10 nM
Kd [3]: 3.7 nM
koff [3]: 8.4e-05 s⁻¹
kon [3]: 22000 M⁻¹ s⁻¹

antibody E3 (full antibody)
inhibition of survival of trigeminal neurons promoted by NT3 [4]: > 200 nM

B1: 8L2-4D5 (CDR-grafted antibody, the template) (Fab, V domains shown)
VH: QVQLQESGPGLVKPSETLSLTCTVSGFSLIGYDINWIRQPPGKGLEWIGMIWGDGTTDYNSALKSRVTISVDTSKNQFSLKLSSVTAADTAVYYCARGGYYYGTSYYFDYWGQGTLVTVS
VL: DIQMTQSPSSLSASVGDRVTITCRASQDISNHLNWYQQKPGKAPKLLIYYISRFHSGVPSRFSGSGSGTDFTFTISSLQPEDIATYYCQQSKTLPYTFGQGTKLEIKR
notes: expressed in E. coli with human kappa constant domain (GenBank CAA09181) and CH1 of human IgG2a (P01859)
Kd [5]: ~38 nM

B2: 8L2-6D5 (CDR-grafted antibody with the framework mutation V71K) (Fab, V domains shown)
VH: B1 VH with V71K
VL: B1 VL
notes: Fab with human CH1 (IgG2a) and kappa constant domains, his tag at the C terminus of the heavy chain; also called clone 8L2-6D5; Fab 8L2-6D5
Kd [2]: ~15 nM
koff [6]: 0.001 s⁻¹

B3: Fab 3C (Fab, V domains shown)
VH: B1 VH with I34L, M50I, L63V, V71K, Y101W, G103A
VL: B1 VL with D28S, H32N, I51T, S91E, K92R
notes: Fab from HEK293 cells
Kd [3]: ~0.35 nM

B4: Fab E3 (Fab, V domains shown)
VH: B1 VH with I34L, M50I, L63V, V71K, Y101W, G103A
VL: B1 VL with D28S, H32N, I51T, S91E, K92H
notes: Fab made in HEK293 cells, purified on Ni-NTA; also called 3E; Fab 3E
IC50, inhibition of human NGF-dependent survival of mouse E13.5 trigeminal neurons, 1.5 pM human NGF [1]: ~1.2 pM
IC50, inhibition of human NGF-dependent survival of mouse E13.5 trigeminal neurons, 15 pM human NGF [1]: ~21 pM
IC50, inhibition of rat NGF-dependent survival of mouse E13.5 trigeminal neurons, 1.5 pM rat NGF [7]: ~1.3 pM
IC50, inhibition of rat NGF-dependent survival of mouse E13.5 trigeminal neurons, 15 pM rat NGF [7]: ~31.6 pM
Kd [3]: ~0.07 nM
koff [3]: ~4.2e-05 s⁻¹
kon [3]: ~600000 M⁻¹ s⁻¹
fold higher binding affinity than parent mouse antibody 911 [8]: ~50 fold

B5: H19-L129 (Fab, V domains shown)
VH: B1 VH with I34L, M50I, L63V, V71K
VL: B1 VL with D28S, H32N, I51T
notes: carries I34L, M50I, L63V (heavy) and D28S, H32N, I51T (light) with the grafted H3 and L3 CDRs, so it is E3 without Y101W, G103A, S91E, K92H; Fab with human CH1 (IgG2a) and kappa constant domains; also called Fab H19-L129; combined clone H19-L129
Kd [9]: ~1 nM
